Experimental data: PMC4176161

How the values were obtained:
[1] = target: T1, …3 (SEP3) (Arabidopsis thaliana), O22456; experiment: native gel or EMSA; details: remark: other sources report otherwise
T1 chain: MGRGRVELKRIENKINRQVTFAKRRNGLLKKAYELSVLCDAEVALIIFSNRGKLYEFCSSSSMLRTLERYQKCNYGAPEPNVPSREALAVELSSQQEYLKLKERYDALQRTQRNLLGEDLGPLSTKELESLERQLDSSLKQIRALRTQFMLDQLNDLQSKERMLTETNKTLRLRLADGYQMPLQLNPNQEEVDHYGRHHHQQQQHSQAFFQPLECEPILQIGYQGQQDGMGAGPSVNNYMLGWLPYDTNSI

[2] = target: T1, …3 (SEP3) (Arabidopsis thaliana), O22456; experiment: native gel or EMSA; details: remark: other sources report otherwise

B1: …3 (SEP3), O22456 1-251 (natural protein)
chain: MGRGRVELKRIENKINRQVTFAKRRNGLLKKAYELSVLCDAEVALIIFSNRGKLYEFCSSSSMLRTLERYQKCNYGAPEPNVPSREALAVELSSQQEYLKLKERYDALQRTQRNLLGEDLGPLSTKELESLERQLDSSLKQIRALRTQFMLDQLNDLQSKERMLTETNKTLRLRLADGYQMPLQLNPNQEEVDHYGRHHHQQQQHSQAFFQPLECEPILQIGYQGQQDGMGAGPSVNNYMLGWLPYDTNSI
[1]
  stoichiometry N: 2
[2]
  stoichiometry N: 4
